The results in this text go back to paper PMC2847222.

For this test, the target named is RepD replication initiation protein of Staphylococcus aureus plasmid pC221 (wild type) (Staphylococcus aureus (plasmid pC221)) (UniProt P03065). Nature of the test: AUC.
Chain of UniProt P03065 (P03065 whole entry): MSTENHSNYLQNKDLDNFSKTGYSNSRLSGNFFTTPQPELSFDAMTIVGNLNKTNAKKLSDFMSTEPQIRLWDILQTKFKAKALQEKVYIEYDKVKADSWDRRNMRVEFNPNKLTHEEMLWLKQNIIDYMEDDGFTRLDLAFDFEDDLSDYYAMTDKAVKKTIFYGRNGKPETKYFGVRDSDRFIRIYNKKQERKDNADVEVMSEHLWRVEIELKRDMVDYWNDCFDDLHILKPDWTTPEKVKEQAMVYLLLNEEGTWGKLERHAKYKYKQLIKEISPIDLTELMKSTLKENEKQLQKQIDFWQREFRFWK

B1: Bacillus stearothermophilus PcrA helicase (enzyme)
chain: MNFLSEQLLAHLNKEQQEAVRTTEGPLLIMAGAGSGKTRVLTHRIAYLMAEKHVAPWNILAITFTNKAAREMRERVQSLLGGAAEDVWISTFHSMCVRILRRDIDRIGINRNFSILDPTDQLSVMKTILKEKNIDPKKFEPRTILGTISAAKNELLPPEQFAKRASTYYEKVVSDVYQEYQQRLLRNHSLDFDDLIMTTIQLFDRVPDVLHYYQYKFQYIHIDEYQDTNRAQYTLVKKLAERFQNICAVGDADQSIYRWRGADIQNILSFERDYPNAKVILLEQNYRSTKRILQAANEVIEHNVNRKPKRIWTENPEGKPILYYEAMNEADEAQFVAGRIREAVERGERRYRDFAVLYRTNAQSRVMEEMLLKANIPYQIVGGLKFYDRKEIKDILAYLRVIANPDDDLSLLRIINVPKRGIGASTIDKLVRYAADHELSLFEALGELEMIGLGAKAAGALAAFRSQLEQWTQLQEYVSVTELVEEVLDKSGYREMLKAERTIEAQSRLENLDEFLSVTKHFENVSDDKSLIAFLTDLALISDLDELDGTEQAAEGDAVMLMTLHAAKGLEFPVVFLIGMEEGIFPHNRSLEDDDEMEEERRLAYVGITRAEEELVLTSAQMRTLFGNIQMDPPSRFLNEIPAHLLETASRRQAGASRPAVSRPQASGAVGSWKVGDRANHRKWGIGTVVSVRGGGDDQELDIAFPSPIGIKRLLAKFAPIEKV
For the molecule B1, the Kd worked out at 98.5 nM.
